Reference: paper PMC11471779

Target: CapGH3b (Alloprevotella sp. MAG60)
Test: SEC-MALS

stoichiometry N: 2
Substance: CapGH3b (enzyme)
